Test results reported in publication PMC7253548.

Target: OsHsfB4d (Oryza sativa (rice; cv. Zhonghua 11?), UniProt Q10KX8 1-305)
Test: EMSA; […], room temperature 20 min, […]; buffer, […]
Details: protein: recombinant; tags: 6xHis (pET-28a); chain copies: 3

OsHsfB4d, sequence (Q10KX8 whole entry): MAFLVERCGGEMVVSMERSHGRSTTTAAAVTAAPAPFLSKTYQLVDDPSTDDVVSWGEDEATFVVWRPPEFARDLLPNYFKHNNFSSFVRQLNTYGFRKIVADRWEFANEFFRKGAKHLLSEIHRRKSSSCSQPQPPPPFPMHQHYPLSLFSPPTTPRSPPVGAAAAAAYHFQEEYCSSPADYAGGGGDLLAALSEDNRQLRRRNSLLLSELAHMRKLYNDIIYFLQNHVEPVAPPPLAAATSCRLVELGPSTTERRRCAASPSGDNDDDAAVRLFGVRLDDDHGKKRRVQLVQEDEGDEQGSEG

| Binder | binding result |
| --- | --- |
| 18.0-HSE (perfect HSE only) (dsDNA) DNA 1: CTTGGAATAAGCTTCTAGAAACTTCCAGTTTG DNA 2: CAAACTGGAAGTTTCTAGAAGCTTATTCCAAG | binds |
| 18.0-HSE-mutant (Mu) (dsDNA) DNA 1: CTTGGAATAAGCTTCTACAAACAATCAGTTTG DNA 2: CAAACTGATTGTTTGTAGAAGCTTATTCCAAG | no binding |
